B1: C046 (antibody, V domains shown)
VH: EVQLVESGGGLAQPGRSLRLSCAASGFTFDDYAMHWVRQAPGKGLEWVSGINWNSGSLGYADSVKGRFTISRGIAKNSLYLQMNSLRPEDTAFYYCAKAGVRGIAAAGPDLNFDYWGQGTLVTVSS
VL: EIVLTQSPATLSLSPGERATLSCRASQSVSSYLAWYQQKPGQAPRLLIYDASNRATGIPARFIGSGSGTDFTLTISSLEPEDFAVYYCQQRITFGQGTRLEIK
B2: C528 (antibody, V domains shown)
VH: EVQLVESGGGLVQPGGSLRLSCAASGFTFRNYDMHWVRQVAGKGLEWVSAIGTSGDTYYPDSVKGRFTISRENAKNSVYLQMNNLRAGDTAVYFCVRDREISGWTGWYFDLWGRGTLVTVSS
VL: DIQMTQSPSSLSASVGDRVTITCRASQTIHNYLNWYQQIPGKAPRLLIYATNTLQSGVPSRFSGSGSGTDFTLTITGLQPEDFATYYCQQSYSTPPITFGQGTRLEIK
B3: C509 (antibody, V domains shown)
VH: QVQLQESGPGLVKPSGTLSLTCAVSGGSISSSNWWSWVRQPPGKGLEWIGEIYNSGSTNYNPSLKSRVTILVDKSKNQFSLKLSSVTAADTAVYYCAGSYSNYIGGVWFDPWGQGTLVTVSS
VL: EIVLTQSPATLSLSPGERATLSCRASQSVSTYLAWYQQKPGQAPRLLIYDASNRATGIPARFSGSGSGTDFTLTISSLEPEDFAVYYCQQRNNWLTFGGGTKVEIK
B4: C532 (antibody, V domains shown)
VH: EVQLVQSGAEVKKPGESLKISCKGSGYRFTNYWIGWVRQMPGKGLEWIGNIFPGDSDSRYSPSFQGQVTISVDMSITTAYLHWSSLKASDTAIYYCARLSERWYSPFDSWGQGTLVTVSS
VL: EIVMTQSPATLSVSPGERATLSCRASQSVSSNLAWYQQKPGQAPRLLIYGASTRATGFPARFSGSGSGTEFTLTISSLQSEDFAVYFCQQYNNWPPGGFTFGPGTKVDIK
B5: C512 (antibody, V domains shown)
VH: QVQLQESGPGLVKPSGTLSLTCAVSAGSISSNNWWSWVRQPPGKGLEWIGEVYHNGNINYNPSLKSRVTLSVDKSKNQFSLKLSSVTAADTAVYYCAKGGDRAMGPEYFDSWGQGTLVTVSS
VL: QSALTQPASVSGSPGQSITISCTGTSSDVGANNYVSWYQQHPGKAPKLMIYDVNERPSGVSNRFSGSKSGNTASLTISGLQTEDEADYYCSSFASSSTLLFGGGTKLTVL
B6: C523 (antibody, V domains shown)
VH: QVQLQESGPGLVKPSETLSLTCTVSGASISSHYWSWIRQPPGKGLEWIGYIHYIGSTNYNPSLKSRVTILLDTSKNQFSLRLRSVTAADTAVYYCARGWPYCGVDCYSGFDYWGQGTLVTVSS
VL: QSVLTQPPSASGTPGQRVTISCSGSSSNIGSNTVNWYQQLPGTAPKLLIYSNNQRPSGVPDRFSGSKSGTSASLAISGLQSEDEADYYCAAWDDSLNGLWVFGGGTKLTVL
B7: C597 (antibody, V domains shown)
VH: QVQLVQSGPEVKKPGTSVKVSCKASGFTFTNSAVQWVRQSRRQRLEWIGWIVVGSGNTNYAQKFQERVTITRDMSTSTAYMELSSLRSEDTAVYYCAAVDCNSTSCYDAFDIWGQGTMVTVSS
VL: EIVLTQSPGTLSLSPGERATLSCRASQSFRSSYLAWYQQKPGQAPRLLIYGASSRATGIPDRFSGSGSGSDFTLTISRLEPEDFAVYYCQQYDISPWTFGQGTKVEIK
B8: C598 (antibody, V domains shown)
VH: QVQLVQSGPEVKKPGTSVKVSCKASGFTFSSSAVQWVRQARGQRLEWIGWIVVGSGNTNYAQKFQERVTITRDMSTSTAYMELSSLRSEDTAVFYCAAPYCNVTTCFDGFNIWGRGTMVTVSS
VL: EIVLTQSPGTLSLSPGERATLSCRASQSVRSSYFAWYQQKPGQAPRLLIYAASSRATGIPDRFSGSGSGTDFTLTISRLEPEDFALYYCQQYGSSPWTFGQGTKVEIK
B9: C510 (antibody, V domains shown)
VH: QVQLQQWGAGLLKPSETLSRTCAVYGGSFSGYYWSWFRQSPGKGLEWIGEINHSGSTNYNPSLKNRVTISVDTSKNQFSLMLSSVTAADTAVYYCARGGFGVVINYYYSGMDVWGRGTTVTVSS
VL: not shown
B10: C524 (antibody, V domains shown)
VH: EVQLVESGGDLIQPGGSLRLSCAASGFSVSNSYMSWVRQAPGKGLEWVSIIYSGGSTYYADSVKGRFTISRDNSKNTLYLQMNSLRAEDTAVYFCAKTPRGDYDSSGTSAYWGQGTLVTVSS
VL: QLVLTQSPSASASLGASVNLTCTLSSGHSSYAIAWHQQQPEKGPRFLMKLSSDGSHNKGDGIPDRFSGSSSGAERFLTISSLQSEDEADYYCQTWGIGSDWVFGGGTKLTVL
B11: C526 (antibody, V domains shown)
VH: QVQLVQSGAEVKKPGASVKVSCKASGHTFTTYYLHWVRQAPGQGLEWMGRIDPSGGSTTYAQKFQGRVTMTRDTSTSTVYMELSSLRSEDTALYYCARGGYCGSTSCSPDDYFDYWGQGTLVTVSS
VL: SYELTQPPSVSVAPGKTARITCGGNNIGSKSVHWYQQKPGQAPVLVIYYDSDRPSGIPERFSGSNSGNTATLTISRVEAGDEADYYCQVWDSSSDHYYVFGTGTKVTVL
B12: C514 (antibody, V domains shown)
VH: EVQLVESGGGLVQPGGSLRLSCAASEFIVTRNYMSWVRQAPGKGLEWVSLIYPGGSTFYADSVKGRFTISRDNSKNTLFLHMNSLRAEDTAVYYCARDLAGRLDYWGQGTLVTVSS
VL: DIQMTQSPSSLSASVGDRVTITCQASQDINNFLNWYQQKPGKAPKLLIYDASNLETGVPSRFSGSGSGTDFTFTISSLQPEDIAIYYCQQYDSLSRLTFGGGTKVEIK
B13: C517 (antibody, V domains shown)
VH: EVQLVESGGGLVQPGGSLRLSCAASEFIVSRNYMSWVRQAPGKGLEWVSLIYSGGSTYYADSVKGRFTISRDNSKNTLYLQMNSLRAEDTAMYYCARDIAGRLDYWGQGTLVTVSS
VL: DIQMTQSPSSLSASVGDRVTITCQASQDISKYLNWYQQKPGKAPKLLIYDASNLETGVPSRFSGSGSGTDFTFTISSLQPEDFATYYCQHYDSLSRLTFGGGTKVEIK
B14: C530 (antibody, V domains shown)
VH: QVQLVESGGGVAQPGRSLRLSCAASGFTFSRYGMHWVRQAPGKGLEWVAVIWHDGSDKYCADFVKGRFTISRDNSKNTLYMQMDSLRAEDTAVYYCARGGRPDHETGIAVLGEYYFDSWGQGTLVTVSS
VL: SYELTQPPSVSVSPGQTARITCSGDAFPLQYGYWYQQKPGQAPVLVIYKDKERPSGISERFSGSSSGTTVTLTISGVQAEDEADYYCQSADTNGVVFGGGTSLTVL
B15: C527 (antibody, V domains shown)
VH: QVQLVESGGGVVQPGRSLRLSCAASGFTFSSYGMHWVRQAPGKGLEWVALIGYDGTDKYYAENVKGRFTISRDNSKNTLFLQMNSLRGGDTAVYLCARDGIPFRYGMDVWGQGTTVTVSS
VL: DIQMTQSPSTLSASVGDRVTITCRASQSIDIWLAWYQQKPGKAPKFLIHKASTLESGVPSRFSGSGSGTEFTLTISSLQPDDFATYYCQHYHSYSGTFGQGTKVEIK
B16: C525 (antibody, V domains shown)
VH: EVQLVESGGRLVQPGRSLRLSCAASGFTFDDYAIHWVRQAPGKGLEWVSGISWNSGSIGYADSVRGRFTISRDNAKNSLYLQMNSLRAEDTALYYCAKGLDSSSSASPDYWGQGTLVTVSS
VL: DIQMTQSPSSVSASVGDRVTITCRASQDISSWLAWYQQKPGKAPKLLIYLASSLQSGVPSRFSGSGSGTDFILTISSLQPEDFGTYYCQQGNSFPLTFGGGTKVEIK
B17: C513 (antibody, V domains shown)
VH: EVQLLESGGGLVQPGGSLRLSCVASGFSFSTYAMSWVRQAPGQGLEWVSTITGTSIGTYYADSVKGRFTISRDNSKNTVFLQMKSLRAEDAAVYYCANHPLASGDEYYYYYMDVWGKGTTVTVSS
VL: EIVLTQSPDTLSLSPGERATLSCRASQSVHSKQLAWYQQKPGQAPRLLIYGASSRATGIPDRFSGSGSGTDFTLTISRLEPEDFAVYYCQQYGSIRALTFGGGTKVEIK
B18: C516 (antibody, V domains shown)
VH: QVQLVQSGAEVKKPGSSVKVSCKASGGTFSSYAISWVRQAPGQGLEWMGRIIPMLVIATYARKFQGRVTITADKSTSTAYMELSSLRSEDTAVYYCARGVVAATPGNFDIWGQGTMVTVSS
VL: EIVMTQSPATLSVSPGERATLSCRASQSVSSNLAWYQQKPGQAPRLLIYGASTRATGIPARFSGSGSGTEFTLTISSLQSEDFAVYYCQQYNNGLTFGGGTKVEIK
B19: C511 (antibody, V domains shown)
VH: EVQLVESGGGLVQPGGSLRLSCAATEITVSSNYMTWVRQAPGKGLEWVSVIYPGGSTFYADSVKGRFSISRDNSKNTLYLQMNSLRAEDTAVYYCARDLVVYGLDCWGQGTLVTVSS
VL: DIQLTQSPSFLSASVGDRVTITCRASQGISSYLAWYQQKPGKAPKLLIYAASTLQSGVPSRFSGSGSGTEFTLTISSLQPEDFATYYCQQLNTYPPPFGGGTKVEIK
B20: C515 (antibody, V domains shown)
VH: EVQLVESGGGLVQPGGSLRLSCAASGFIVSSNYMSWVRQAPGKGLEWVSILYSGGSTYYADSVKGRFTISRDNSKNTLYLQMNSLRAEDTAVYYCARDLVVYGADYWGQGTLVTVSS
VL: DIQLTQSPSFLSASVGDRVTITCRASQGISSYLAWYQQKPGKAPKLLIYAASTLQSGVPSRFSGSGSGTEFTLTISSLQPEDFATYYCQQLNSYPPPFGGGTKVEIK
B21: C531 (antibody, V domains shown)
VH: EVQLVESGGGLVQPGRSLRLSCVATGFTFDDFAMHWVRQAPGKGLEWVSGISWNGGIIGYVDSVKGRFTISRDNAKNSLYLQMNSLRPEDTALYYCVKGYRYYYDILTGYYNDAGAFDYWGQGTLVTVSS
VL: DIQSTQSPSFLSASVGDRVAITCRASQGISSYLAWYQQKPGKAPKLLIYPASTLQSGVPSGFSGSGSGTEFTLTISSLQPEDFATYYCQQLNDYPFTFGPGTKVDIK
B22: C529 (antibody, V domains shown)
VH: EVQLLESGGGLVQPGGSLRLSCAASGFTFNNYAMNWVRQAPGRGLEWVSGISGSGANTYYADSVKGRFTISRDNPKNTLSLQMNSLRAEDTALYYCAKVLSPTYYDSWSGPDAFDFWGQGTMVTVSS
VL: DIQMTQSPSTLSASVGDRVTITCRASQTISPWLAWYQQKPGKAPNLLIYKASSLESGVPSRFSGSGSGTEFTLTISSLQPDDFATYYCQQYNSYSSWTFGQGTKVEIK

As usually defined, the EC50 is the concentration that produces a half-maximal response. Read a high EC50 as lower potency in that assay.

In one test the target is SARS-CoV-2 spike protein receptor binding domain (RBD) (SARS-CoV-2, UniProt P0DTC2 319-539). In words: ELISA on plate-coated RBD.
B1 came in with an EC50 of 4.02 ng/mL.

The target of a further test is SARS-CoV-2 spike protein receptor binding domain (RBD), wild type (SARS-CoV-2, UniProt P0DTC2 319-539). The test is described as follows: ELISA, RBD protein coated on plate, antibody titrated. A general note: ELISA stands for enzyme-linked immunosorbent assay.
Molecule B2 yielded an EC50 of 5.66 ng/mL.

Molecule B3 yielded an EC50 of 4.44 ng/mL.

Regarding B4, the EC50 is 1 ng/mL.

On to B5, for which the EC50 is 1.68 ng/mL.

In turn, B6 yielded an EC50 of 9.08 ng/mL.

In the case of B7, the EC50 is 3.77 ng/mL.

For the molecule B8, the EC50 amounted to 3.78 ng/mL.

In turn, B9 gave an EC50 of 308 ng/mL.

As for B10, the EC50 came to 5 ng/mL.

As to B11, the EC50 worked out at 18.2 ng/mL.

With B12, the EC50 was 0.82 ng/mL.

Turning to B13, it took 0.87 ng/mL to reach a half-maximal effect (EC50).

In turn, B14 had an EC50 of 10.5 ng/mL.

Molecule B15 showed an EC50 of 13.4 ng/mL.

B16 showed an EC50 of 10.6 ng/mL.

Consider B17, for which the EC50 was 1.31 ng/mL.

Turning to B18, it took 5.72 ng/mL to reach a half-maximal effect (EC50).

As for B19, it took 1.33 ng/mL to reach a half-maximal effect (EC50).

Turning to B20, the EC50 came out at 1.73 ng/mL.

Molecule B21 gave an EC50 of 6.84 ng/mL.

B22 registered an EC50 of 8 ng/mL.

For the origin of these results see patent publication US20220195015A1 (published 2022).
